Data taken from paper PMC6117287.

How the values were obtained:
[1] = molecular target: Isatin hydrolase A from Labrenzia aggregata (Labrenzia aggregata IAM12614); assay: crystal structure; LaIHA at 15-20 mg/mL with 1 mM MnCl2, crystallised at 22 °C; structures with benzyl benzoate (1.50 Å) and isatinate (1.79 Å); dimer in the asymmetric unit
purified protein = substrate: O=C1Nc2ccccc2C1=O; assay: purified protein; assay type: biochemical, Roseibium aggregatum; conditions: Mn2+ dependent enzyme; one-site Michaelis-Menten fit

Row | stoichiometry N [1] | Molecule | Km (purified protein) [µM]
1 | 2 | Isatin hydrolase A from Labrenzia aggregata (enzyme) | –
2 | – | LaIHA (Roseibium aggregatum IAM 12614) (protein) MSSLNQLVSGLASGAVRIVDLTHTLDPDFPVIVLPPEFGQCARFRMEEISAYDHRGPAWKWHNISMSEHTGTHFDAPSHWISGKDVPNGSVDEIPAEAFVGPVVVIDCSKGAAENDDFELTPEIIAGWESEHGRIPEDAWVLMRTDWSKRRGADYLNMRADGPHSPGPTPEAIRFLIEERNIRGFGTETVGTDAGQGAHYVPPYPAHYLLHGAGKYGLQCLANLDQLPATGAVLIAAPLKIKNGTGSPLRVLAMVTE | 16
